Patent US20150098945A1 (Daiichi Sankyo, published 2015)
Each block holds one binder with its values, some of them ahead of it.

Columns and labels:
[1] = biological target: T1, N-terminal FLAG-tagged human ROBO4 extracellular region/domain deletion variant hROBO4-210 (human, UniProt Q8WZ75 210-1007); test: flow cytometry, HEK293 cells transfected with pCI-FLAG-hROBO4-210, anti-mouse IgG FITC; control histogram IgG (Mouse IgG2a)
T1 construct: On transfected HEK293 cells; also called pCI-FLAG-hROBO4-210; pCI-hROBO4-210
T1 sequence: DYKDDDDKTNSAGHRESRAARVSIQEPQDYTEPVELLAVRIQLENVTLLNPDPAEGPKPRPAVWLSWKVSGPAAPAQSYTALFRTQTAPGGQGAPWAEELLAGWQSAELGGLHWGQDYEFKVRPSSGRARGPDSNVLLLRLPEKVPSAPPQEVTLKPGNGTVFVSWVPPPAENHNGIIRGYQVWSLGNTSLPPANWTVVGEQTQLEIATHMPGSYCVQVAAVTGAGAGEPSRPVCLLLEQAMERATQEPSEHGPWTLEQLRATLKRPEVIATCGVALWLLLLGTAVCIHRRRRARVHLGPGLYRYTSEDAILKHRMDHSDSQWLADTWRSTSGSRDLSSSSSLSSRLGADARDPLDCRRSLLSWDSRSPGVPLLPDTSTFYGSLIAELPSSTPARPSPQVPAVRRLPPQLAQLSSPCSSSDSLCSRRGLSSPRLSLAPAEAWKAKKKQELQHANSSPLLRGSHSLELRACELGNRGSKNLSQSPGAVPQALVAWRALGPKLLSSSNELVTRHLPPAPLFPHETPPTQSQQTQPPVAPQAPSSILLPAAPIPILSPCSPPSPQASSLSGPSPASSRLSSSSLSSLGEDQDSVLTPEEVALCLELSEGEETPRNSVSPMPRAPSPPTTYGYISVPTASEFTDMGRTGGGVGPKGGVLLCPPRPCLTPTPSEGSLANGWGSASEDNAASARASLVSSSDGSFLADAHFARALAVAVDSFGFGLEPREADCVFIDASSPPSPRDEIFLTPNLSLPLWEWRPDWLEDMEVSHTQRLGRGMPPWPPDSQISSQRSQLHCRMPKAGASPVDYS
Experimental: HEK293 cells were inoculated at a concentration of 1.5×10⁶ cells/dish to a 60-mm dish (manufactured by Corning Inc.) and cultured overnight in a DMEM medium containing 10% FBS at 37° C. under 5% CO₂ conditions. […] On the next day, the expression vector-transfected cells were treated with TrypLE Express (manufactured by Life Technologies Corp.), washed with PBS containing 5% FBS, and then suspended in PBS containing 5% FBS. The obtained cell suspension was used in flow cytometry analysis.
Each cell suspension prepared in 4)-5-1 was centrifuged, and the supernatant was removed. Then, MAb1, a positive control Monoclonal ANTI-FLAG M2 antibody produced in mouse, or a negative control Mouse IgG2a was added at a concentration of 10 μg/mL to 2×10⁵ expression vector-transfected cells, and the resulting suspension was left standing at 4° C. for 1 hour. The cells were washed once with PBS containing 5% FBS. Then, Anti-Mouse IgG FITC conjugate diluted 1000-fold with PBS containing 5% FBS was added thereto, and the resulting suspension was left standing at 4° C. for 1 hour. […] Data was analyzed using Flowjo. The histogram of FITC fluorescence intensity was prepared. The antibody was determined to bind to a cell when the histogram of MAb1 was shifted to a stronger fluorescence intensity region compared with the histogram of the negative control Mouse IgG2a. […]

[2] = biological target: T2, N-terminal FLAG-tagged cynomolgus monkey ROBO4, cynoROBO4-1 (pCI-FLAG-cynoROBO4-1) (cynomolgus monkey, UniProt Q8WZ75 28-1007 (human entry)); test: flow cytometry (FC500), HEK293 cells transfected with pCI-FLAG-cynoROBO4-1, antibody at 10 µg/mL, FITC goat anti-human IgG Fc; control histogram IgG (human IgG)
T2 chain: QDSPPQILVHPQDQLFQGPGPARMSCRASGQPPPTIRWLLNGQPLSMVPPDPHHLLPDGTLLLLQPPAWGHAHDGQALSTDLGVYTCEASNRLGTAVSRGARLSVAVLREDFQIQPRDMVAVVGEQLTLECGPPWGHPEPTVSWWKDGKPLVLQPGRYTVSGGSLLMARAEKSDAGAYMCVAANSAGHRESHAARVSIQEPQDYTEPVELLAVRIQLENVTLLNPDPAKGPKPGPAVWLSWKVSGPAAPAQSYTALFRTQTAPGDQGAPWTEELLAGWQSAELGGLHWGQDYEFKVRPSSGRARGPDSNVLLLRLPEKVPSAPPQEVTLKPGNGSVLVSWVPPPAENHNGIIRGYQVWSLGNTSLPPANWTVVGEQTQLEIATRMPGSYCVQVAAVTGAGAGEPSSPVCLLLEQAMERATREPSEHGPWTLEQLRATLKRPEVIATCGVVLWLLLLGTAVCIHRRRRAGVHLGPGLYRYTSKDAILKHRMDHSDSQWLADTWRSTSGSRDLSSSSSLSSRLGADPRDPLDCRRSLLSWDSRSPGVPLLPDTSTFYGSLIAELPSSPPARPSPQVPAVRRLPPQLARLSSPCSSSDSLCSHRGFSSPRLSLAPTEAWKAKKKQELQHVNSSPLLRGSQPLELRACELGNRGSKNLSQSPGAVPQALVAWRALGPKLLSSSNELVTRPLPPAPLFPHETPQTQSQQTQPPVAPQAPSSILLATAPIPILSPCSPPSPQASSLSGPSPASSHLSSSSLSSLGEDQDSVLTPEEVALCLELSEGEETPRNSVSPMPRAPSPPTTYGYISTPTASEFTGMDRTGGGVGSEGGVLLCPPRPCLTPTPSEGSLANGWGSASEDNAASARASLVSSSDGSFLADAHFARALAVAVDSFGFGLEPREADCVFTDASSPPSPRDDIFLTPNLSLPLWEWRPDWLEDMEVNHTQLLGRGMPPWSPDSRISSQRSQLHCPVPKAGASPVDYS

binding result [1]: no binding (tested: 10 µg/mL)
B1: anti-ROBO4 mouse monoclonal antibody MAb1 (antibody, mouse IgG1, V domains shown)
VH: EVQLVESGGGLVKPGGSLKLSCAASGFTFSTYAMSWVRQTPEKRLEWVATISNGGTYTYYPDSVKGRFTISRDNAENTLYLQMSSLRSEDTAMYFCARLIYYDYLDYWGHGTTLTVSS
VL: DAVMTQTPLSLPVSLGDQASISCRSSQSLENSNGNTYLNWYFQKPGQSPQLLIYRVSNRFSGVLDRFSGSGSGTDFTLKISRVEAEDFGVYFCLQVTHVPWTFGGGTKLEIKR
notes: Mouse IgG1 (gamma1), kappa light chain, purified from hybridoma supernatant; also called parent antibody MAb1

binding result [2]: binds
B2: humanized MAb1 antibody H-1143 (antibody, human IgG2, kappa, V domains shown)
VH: EVQLVESGGGLVQPGGSLRLSCAASGFTFSTYAMSWVRQAPGKGLEWVATISQGGTYTYYPDSVKGRFTISRDNAKNTLYLQMNSLRAEDTAVYYCARLIYYDYLDYWGQGTLVTVSS
VL: DIVMTQSPLSLPVTLGEPASISCRSSQSLENENKNLYLNWYLQKPGQSPQLLIYRVSNRFSGVPDRFSGSGSGTDFTLKISRVEAEDVGVYYCLQVTHVPWTFGPGTKVDIKR
notes: Human IgG2 / kappa constant regions; also called hMAb1-H2-type heavy chain + hMAb1-L2-type light chain
